Experimental data taken from patent US20250011363A1, “OPTIMIZED SHORTENED PEPTIDE THAT BINDS TO ACETYLCHOLINE RECEPTOR, AND USE THEREOF” (SKINMED CO., LTD., priority 2021, published 2025).
One block for each binder: values may come before it.

Molecular target: acetylcholine receptor
Assay: SPR, AchR immobilized on CM5 chip, peptide at 10 uM

B1: 5mer-1000 (peptide)
peptide: KHCWR
Binding affinity (RU): 20 RU

B4: 5mer-1008 (peptide)
peptide: KDSNR
Binding affinity (RU): 11 RU

B5: 5mer-1010 (peptide)
peptide: KCDNK
Binding affinity (RU): 16 RU

B6: 5mer-725 (peptide)
peptide: RNADR
Binding affinity (RU): 19 RU

B11: 5mer-703 (peptide)
peptide: KPNWR
Binding affinity (RU): 22 RU

B12: 5mer-1004 (peptide)
peptide: RDADR
Binding affinity (RU): 30 RU

B13: 5mer-707 (peptide)
peptide: KIEAK
Binding affinity (RU): 32 RU

B14: 5mer-709 (peptide)
peptide: RHTIR
Binding affinity (RU): 27 RU

B17: 5mer-700 (peptide)
peptide: RAWER
Binding affinity (RU): 17 RU

B18: 5mer-711 (peptide)
peptide: KECIK
Binding affinity (RU): 32 RU

B19: 5mer-712 (peptide)
peptide: RADFK
Binding affinity (RU): 18 RU

B20: 5mer-710 (peptide)
peptide: KEKAR
Binding affinity (RU): 21 RU

B21: 5mer-715 (peptide)
peptide: KCNGR
Binding affinity (RU): 22 RU

B24: 5mer-1011 (peptide)
peptide: KTDMK
Binding affinity (RU): 25 RU

B27: 5mer-722 (peptide)
peptide: KNHKK
Binding affinity (RU): 33 RU

B30: 5mer-1012 (peptide)
peptide: RHKVR
Binding affinity (RU): 22 RU

B31: 5mer-726 (peptide)
peptide: KATMK
Binding affinity (RU): 33 RU

B32: 5mer-1007 (peptide)
peptide: RDMMR
Binding affinity (RU): 30 RU

B35: 5mer-1006 (peptide)
peptide: KEPER
Binding affinity (RU): 17 RU

B36: 5mer-716 (peptide)
peptide: KINVR
Binding affinity (RU): 25 RU

B37: 5mer-1002 (peptide)
peptide: KEDNK
Binding affinity (RU): 12 RU

B39: 5mer-706 (peptide)
peptide: RKMAK
Binding affinity (RU): 27 RU

B41: 5mer-724 (peptide)
peptide: KTTAK
Binding affinity (RU): 14 RU

B42: 5mer-708 (peptide)
peptide: KPKAR
Binding affinity (RU): 20 RU

B44: 5mer-719 (peptide)
peptide: KISER
Binding affinity (RU): 21 RU

B47: 5mer-702 (peptide)
peptide: KISHK
Binding affinity (RU): 30 RU

B50: 5mer-714 (peptide)
peptide: RPCAK
Binding affinity (RU): 32 RU

B53: 5mer-1005 (peptide)
peptide: RTHGR
Binding affinity (RU): 30 RU

B54: 5mer-717 (peptide)
peptide: KCKFR
Binding affinity (RU): 20 RU

B55: 5mer-1009 (peptide)
peptide: KMCAK
Binding affinity (RU): 29 RU

B60: 5mer-701 (peptide)
peptide: RNHNK
Binding affinity (RU): 22 RU

B62: 5mer-1001 (peptide)
peptide: KPCGK
Binding affinity (RU): 33 RU

B64: 5mer-720 (peptide)
peptide: KDPKR
Binding affinity (RU): 32 RU

B65: 5mer-713 (peptide)
peptide: KYPKK
Binding affinity (RU): 16 RU

B67: 5mer-999 (peptide)
peptide: KTKFK
Binding affinity (RU): 19 RU

B68: 5mer-705 (peptide)
peptide: RHAKK
Binding affinity (RU): 15 RU

B69: 5mer-1003 (peptide)
peptide: RMTVR
Binding affinity (RU): 11 RU

B72: 5mer-718 (peptide)
peptide: RNKKK
Binding affinity (RU): 19 RU

B74: 5mer-704 (peptide)
peptide: RFMGK
Binding affinity (RU): 28 RU

B76: 5mer-699 (peptide)
peptide: KKNER
Binding affinity (RU): 12 RU

B78: 5mer-721 (peptide)
peptide: RYSKK
Binding affinity (RU): 22 RU

B79: 5mer-723 (peptide)
peptide: RASPR
Binding affinity (RU): 22 RU

Results, then the binder that gave them:

Binding affinity (RU): 139 RU
B2: 6mer-2-381 (peptide)
peptide: KVYRRR

Binding affinity (RU): 20 RU
B3: 5mer-1026 (peptide)
peptide: RNAVR

Binding affinity (RU): 30 RU
B7: 5mer-1015 (peptide)
peptide: RCWMK

Binding affinity (RU): 28 RU
B8: 5mer-1019 (peptide)
peptide: RFKFK

Binding affinity (RU): 141 RU
B9: 6mer-2-394 (peptide)
peptide: KLVLKR

Binding affinity (RU): 154 RU
B10: 6mer-2-397 (peptide)
peptide: RSIYRK

Binding affinity (RU): 13 RU
B15: 5mer-1023 (peptide)
peptide: RYCKK

Binding affinity (RU): 145 RU
B16: 6mer-2-393 (peptide)
peptide: RGLQRK

Binding affinity (RU): 145 RU
B22: 6mer-2-390 (peptide)
peptide: KWLRRR

Binding affinity (RU): 153 RU
B23: 6mer-2-389 (peptide)
peptide: KSLYKK

Binding affinity (RU): 148 RU
B25: 6mer-2-395 (peptide)
peptide: KWRYRR

Binding affinity (RU): 142 RU
B26: 6mer-2-384 (peptide)
peptide: RSFQKK

Binding affinity (RU): 23 RU
B28: 5mer-1014 (peptide)
peptide: RKNKR

Binding affinity (RU): 153 RU
B29: 6mer-2-401 (peptide)
peptide: RSILRK

Binding affinity (RU): 141 RU
B33: 6mer-2-391 (peptide)
peptide: KQYQKR

Binding affinity (RU): 19 RU
B34: 5mer-1013 (peptide)
peptide: KCCVK

Binding affinity (RU): 149 RU
B38: 6mer-2-392 (peptide)
peptide: RQILKR

Binding affinity (RU): 148 RU
B40: 6mer-2-399 (peptide)
peptide: RWLTRR

Binding affinity (RU): 122 RU
B43: 6mer-2-396 (peptide)
peptide: KWLQRR

Binding affinity (RU): 128 RU
B45: 6mer-2-383 (peptide)
peptide: KLVRRK

Binding affinity (RU): 146 RU
B46: 6mer-2-387 (peptide)
peptide: KWLCKK

Binding affinity (RU): 154 RU
B48: 6mer-2-400 (peptide)
peptide: RQIRRR

Binding affinity (RU): 26 RU
B49: 5mer-1021 (peptide)
peptide: KITHK

Binding affinity (RU): 28 RU
B51: 5mer-1016 (peptide)
peptide: KYTMR

Binding affinity (RU): 139 RU
B52: 6mer-2-388 (peptide)
peptide: KRFQKK

Binding affinity (RU): 141 RU
B56: 6mer-2-398 (peptide)
peptide: RQQRRR

Binding affinity (RU): 141 RU
B57: 6mer-2-380 (peptide)
peptide: RLVYRK

Binding affinity (RU): 154 RU
B58: 6mer-2-385 (peptide)
peptide: RGVCKR

Binding affinity (RU): 24 RU
B59: 5mer-1017 (peptide)
peptide: RCTWK

Binding affinity (RU): 25 RU
B61: 5mer-1025 (peptide)
peptide: RHKWK

Binding affinity (RU): 12 RU
B63: 5mer-1020 (peptide)
peptide: KCKVK

Binding affinity (RU): 148 RU
B66: 6mer-2-382 (peptide)
peptide: KSVSRR

Binding affinity (RU): 29 RU
B70: 5mer-1022 (peptide)
peptide: KIADK

Binding affinity (RU): 127 RU
B71: 6mer-2-379 (peptide)
peptide: RGVQKR

Binding affinity (RU): 26 RU
B73: 5mer-1024 (peptide)
peptide: KIDNK

Binding affinity (RU): 20 RU
B75: 5mer-1018 (peptide)
peptide: KFWAK

Binding affinity (RU): 136 RU
B77: 6mer-2-386 (peptide)
peptide: KWQSKR
